Results from the RNAGym collection of RNA variant scans (doi:10.1021/acssynbio.7b00057).

B1: Pistol ribozyme (parent)
chain: GGGUCGUUGUUCCAUAAUCGCGUGGAUAUGGCACGCAAGUUUCUACCGGGCACCGUAAAUGUCCGACUGGAGCCGUUCGGGCGGCUAUAAACAGACCUCAGGCCCGAAGCGUGGCGGCACCUGCCGCCGGUGGUAAAAAAGAUCGGAAGAGCACACGUCU

Variants of: B1
Assay: aptazyme ON/OFF ratio, guanine; higher = stronger switching; co-transcriptional cleavage with and without guanine

Variant	aptazyme ON/OFF ratio
U7G U10A U11A C12A C13U	1.07
U7G U10A U11A C12A C13A	1.14
U7G U10A U11A C12A C13G	1.11
U7G U10C C13G	1.04
U7G U10C C13U	1.03
U7G U10C C13A	1.04
U7G U8G U10G U11C C13A	1.02
U7G U8G U10G U11C C13U	1.15
U7G U8G U10G U11C C13G	1.29
U7G U8G U11G C12U C13G	1.26
U7G U8G U11G C12U C13U	1.37
U7G U8G U11G C12U C13A	1.5
U7G U8G G9U U11G C13A	1.2
U7G U8G G9U U11G C13G	1.19
U7G U8G G9U U11G C13U	1.42
U7G U8G U10G U11A C12A C13U	1.23
U7G U8G U10G U11A C12A C13A	1.17
U7G U8G U10G U11A C12A C13G	1.31
U7G U8G U11G	2.52
U7G U8G U11A	1.67
U7G U8G U11C	1.35
U7G U8G U10G U11A C12G	1.43
U7G U8G U10G U11A C12A	1.18
U7G U8G U10G U11A C12U	1.36

Variant	aptazyme ON/OFF ratio
U7G U8G U10G U11G C13U	1.37
U7G U8G U10G U11G C13A	1.62
U7G U8G U10G U11G C13G	1.13
U7G U8G U10G U11C C12A C13U	1.46
U7G U8G U10G U11C C12A C13A	1.53
U7G U8G U10G U11C C12A C13G	1.3
U7G U8G U11G C13A	1.21
U7G U8G U11G C13U	1.28
U7G U8G U11G C13G	1.39
U7G U8G U10G U11A C12G C13U	1.47
U7G U8G U10G U11A C12G C13G	1.44
U7G U8G U10G U11A C12G C13A	1.28
U7G U8G U11A C12A	1.36
U7G U8G U11A C12G	1.43
U7G U8G U11A C12U	1.38
U7G U8G U10C	1.38
U7G U8G U10A	2.24
U7G U8G U10G	1.37
U7G U10A U11C C12U C13A	1.12
U7G U10A U11C C12U C13U	1.08
U7G U10A U11C C12U C13G	1.05
U7G U8G U11C C13A	1.41
U7G U8G U11C C13U	1.25
U7G U8G U11C C13G	1.27

Variant	aptazyme ON/OFF ratio
U7G U8G U10C U11G C12G C13A	1.19
U7G U8G U10C U11G C12G C13U	1.32
U7G U8G U10C U11G C12G C13G	1.41
U7G U8G U10A U11G C12G C13A	1.15
U7G U8G U10A U11G C12G C13G	1.23
U7G U8G U10A U11G C12G C13U	1.22
U7G U8G U10G U11C C12G C13A	1.29
U7G U8G U10G U11C C12G C13U	1.4
U7G U8G U10G U11C C12G C13G	1.25
U7G U10C C12G C13A	1.09
U7G U10C C12G C13G	1.04
U7G U10C C12G C13U	1.14
U7G U10A C12G C13A	1.15
U7G U10A C12G C13U	1.17
U7G U10A C12G C13G	1.2
U7G U8G U10C U11G C13G	1.21
U7G U8G U10C U11G C13A	1.26
U7G U8G U10C U11G C13U	1.47
U7G U8G U10G C12A	1.31
U7G U8G U10G C12U	1.54
U7G U8G U10G C12G	1.3
U7G U8G U10C U11G C12G	1.43
U7G U8G U10C U11G C12U	1.23
U7G U8G U10C U11G C12A	1.41

Variant	aptazyme ON/OFF ratio
U7G U8G U10C C12U	1.52
U7G U8G U10C C12A	1.49
U7G U8G U10C C12G	1.09
U7G U8G U10A U11C C12G C13A	1.16
U7G U8G U10A U11C C12G C13G	1.11
U7G U8G U10A U11C C12G C13U	1.29
U7G U8G U10A U11C C13A	1.27
U7G U8G U10A U11C C13G	1.25
U7G U8G U10A U11C C13U	1.08
U7G U8G U10C C12A C13G	1.27
U7G U8G U10C C12A C13U	1.28
U7G U8G U10C C12A C13A	1.45
U7G U10A C12U C13U	1.25
U7G U10A C12U C13A	1.2
U7G U10A C12U C13G	1.22
U7G U10A	1.18
U7G U10C	1.5
U7G U8G U10A U11A C12U C13A	1.44
U7G U8G U10A U11A C12U C13U	1.15
U7G U8G U10A U11A C12U C13G	1.22
U7G U8G U10A U11G C12U	1.38
U7G U8G U10A U11G C12A	1.16
U7G U8G U10A U11G C12G	1.2
U7G U10A U11G C12U C13A	1.17

Variant	aptazyme ON/OFF ratio
U7G U10A U11G C12U C13G	1.22
U7G U10A U11G C12U C13U	1.28
U7G U8G U10G U11G C12G C13U	1.31
U7G U8G U10G U11G C12G C13A	1.42
U7G U8G U10G U11G C12G C13G	1.18
U7G U8G U10C U11C C12A	1.41
U7G U8G U10C U11C C12U	1.35
U7G U8G U10C U11C C12G	1.18
U7G U8G U11G C12U	1.25
U7G U8G U11G C12G	1.28
U7G U8G U11G C12A	1.42
U7G U8G U11C C12G C13U	1.33
U7G U8G U11C C12G C13G	1.23
U7G U8G U11C C12G C13A	1.33
U7G U8G U10C U11A C12G	1.21
U7G U8G U10C U11A C12A	1.34
U7G U8G U10C U11A C12U	1.36
U7G U8G U10C U11G C12U C13A	1.16
U7G U8G U10C U11G C12U C13G	1.52
U7G U8G U10C U11G C12U C13U	1.41
U7G U10A U11G C12G C13G	1.26
U7G U10A U11G C12G C13A	1.18
U7G U10A U11G C12G C13U	1.63
U7G U8G U10A U11C C12U	1.42

Variant	aptazyme ON/OFF ratio
U7G U8G U10A U11C C12A	1.4
U7G U8G U10A U11C C12G	1.25
U7G U8G U11A C13G	1.24
U7G U8G U11A C13U	1.24
U7G U8G U11A C13A	1.5
U7G U8G U10A U11A C12A	1.13
U7G U8G U10A U11A C12U	1.25
U7G U8G U10A U11A C12G	1.22
U7G U8G U10C U11A C12U C13U	1.31
U7G U8G U10C U11A C12U C13A	1.37
U7G U8G U10C U11A C12U C13G	1.37
U7G U8G U10A U11C	1.09
U7G U8G U10A U11A	2.25
U7G U8G U10A U11G	1.65
U7G U10A U11C C12A C13A	1.12
U7G U10A U11C C12A C13G	1.2
U7G U10A U11C C12A C13U	1.18
U7G U8G U10C C12G C13U	1.33
U7G U8G U10C C12G C13G	1.54
U7G U8G U10C C12G C13A	1.4
U7G U8G U11A C12U C13U	1.15
U7G U8G U11A C12U C13G	1.36
U7G U8G U11A C12U C13A	1.56
U7G U8G G9U U11G C12G C13A	1.05

Variant	aptazyme ON/OFF ratio
U7G U8G G9U U11G C12G C13G	1.14
U7G U8G G9U U11G C12G C13U	1.22
U7G U8G U11A C12A C13G	1.02
U7G U8G U11A C12A C13U	1.15
U7G U8G U11A C12A C13A	1.34
U7G U8G U10G C13G	1.47
U7G U8G U10G C13A	1.45
U7G U8G U10G C13U	1.39
U7G U8G G9U U11G C12A C13A	1.1
U7G U8G G9U U11G C12A C13G	1.12
U7G U8G G9U U11G C12A C13U	1.16
U7G U8G U10A U11A C13U	1.35
U7G U8G U10A U11A C13A	1.33
U7G U8G U10A U11A C13G	1.21
U7G U8G U10G U11C C12G	1.29
U7G U8G U10G U11C C12A	1.17
U7G U8G U10G U11C C12U	1.24
U7G U8G U10G U11A C12U C13G	1.17
U7G U8G U10G U11A C12U C13A	1.33
U7G U8G U10G U11A C12U C13U	1.17
U7G U8G U10G U11A	1.66
U7G U8G U10G U11G	1.39
U7G U8G U10G U11C	2.08
